Data on two molecules can be found in US20250250334A1 (MEDICOVESTOR, published 2025).

Usually EC50 stands for the concentration at which the effect is half-maximal. The low end stands for a more potent agent, the high end for a less potent agent.

In test [1] the target is T1, fusion protein containing the extracellular domain of cynomolgus FRalpha and a polyhistidine tag (cynomolgus, UniProt A0A2K5U044 25-233).
T1 construct: extracellular domain; Coated on ELISA plates; also called cynomolgus FRalpha extracellular domain; not shown: polyhistidine tag
Put plainly: ELISA, coated cynomolgus FRalpha ECD-His. As to the method:
(§1) The affinity of each IgG1 for FRalpha was confirmed by ELISA. Briefly, a fusion protein containing the extracellular domain of human FRalpha and a polyhistidine tag was used to coat ELISA plates, which were washed three times with phosphate-buffered saline (PBS) containing 0.1 percent polysorbate 20 (PBST), then blocked with PBS containing 5 percent powdered milk (PBSM), and then washed three more times with PBST. Wells were then incubated with antibodies at varying concentrations for 60 minutes at room temperature in 1 percent PBSM. Wells were then washed three times with PBST, after which the secondary, horseradish-peroxidase-conjugated antibody anti-human-IgG-Fc-HRP (ab97225, Abcam, United Kingdom) was added at a 1:8000 dilution in 1 percent PBSM for 50 minutes at room temperature. The wells were then washed six times with PBST, after which 3,3′, 5,5″-tetramethylbenzidine (TMB) was added. The reaction was stopped with 2 molar sulfuric acid, and the TMB diamine product was quantified at 450 nanometers in a plate reader. Results are depicted in FIG. 2.
The ELISA of the preceding paragraph was repeated with a fusion protein containing the extracellular domain of cynomolgus FRalpha and a polyhistidine tag. Results are depicted in FIG. 3.
For orientation: In an ELISA, binding on a coated surface is turned into a signal by an enzyme label.

The target of test [2] is T2, human FRalpha expressed on cells (transfected HEK293 cells; SKOV3 human ovarian cancer cells) (human, UniProt P15328 25-234).
T2 construct: whole, on cells; also called human folate receptor alpha
Briefly: flow cytometry, SKOV3 human ovarian cancer cells that express FRalpha. As to the method:
(§2) The affinity of each antibody was then assessed by flow cytometry. Briefly, HEK293 cells transfected to express FRalpha were washed with fluorescence-activated cell sorting (FACS) buffer, to which the IgGs were added at varying concentrations and incubated at 4 degrees Celsius for 60 minutes. The cells were then centrifuged and washed twice in FACS buffer. A phycoerythrin-labelled anti-human IgG, Fcgamma antibody (109-115-098; Jackson ImmunoResearch, Pennsylvania, United States) was then added to the cells at a 1:200 dilution and incubated at 4 degrees Celsius for 30 minutes. The cells were then washed, resuspended in FACS buffer, and counted by flow cytometry. Results are depicted in FIG. 4.
The flow cytometry experiment of the preceding paragraph was repeated with a human ovarian cancer cell line that expresses FRalpha, SKOV3. Results are depicted in FIGS. 5A and 5B. […] The antibody according to SEQ ID NO: 3-12 was then designated the lead antibody for further development.
On the technique in general: A flow cytometer gives signals particle by particle.

In test [3] the target is T2, human FRalpha expressed on cells …. Put plainly: flow cytometry, HEK293 cells transfected to express FRalpha. The protocol:
as §2

Test [4] concerns the target T3, fusion protein containing the extracellular domain of human FRalpha and a polyhistidine tag (human, UniProt P15328 25-233).
T3 construct: extracellular domain; Coated on ELISA plates; also called human FRalpha extracellular domain; not shown: polyhistidine tag
Briefly: ELISA, coated human FRalpha ECD-His. The protocol:
as §1

T2 sequence (P15328 25-234): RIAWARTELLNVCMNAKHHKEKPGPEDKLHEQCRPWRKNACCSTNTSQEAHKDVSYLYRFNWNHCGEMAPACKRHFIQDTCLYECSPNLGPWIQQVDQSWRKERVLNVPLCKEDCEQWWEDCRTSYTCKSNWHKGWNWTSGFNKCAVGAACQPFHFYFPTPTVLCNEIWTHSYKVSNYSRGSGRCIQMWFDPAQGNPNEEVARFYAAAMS
T3 sequence (P15328 25-233 limits assumed): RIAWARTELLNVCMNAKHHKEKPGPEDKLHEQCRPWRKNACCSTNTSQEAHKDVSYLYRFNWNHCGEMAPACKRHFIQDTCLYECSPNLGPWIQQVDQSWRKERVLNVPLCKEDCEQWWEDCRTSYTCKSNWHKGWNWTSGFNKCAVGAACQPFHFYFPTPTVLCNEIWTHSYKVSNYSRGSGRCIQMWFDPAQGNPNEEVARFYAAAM
T1 sequence (A0A2K5U044 entry or part of it): as the sequence (P15328 25-233 limits assumed) above, with I2T, W4R, R37K, A146P, H171Y counted along it

B1: lead fully-human anti-FRalpha IgG1 antibody (antibody according to SEQ ID NO: 3-12) (antibody, V domains shown)
VH: EVQLLESGGGLVKPGGSLRLSCAASGFTFSSYTMNWVRQAPGKGLEWVSSISSGGGYIYYADSVKDRFTISRDNAKNSLYLQMNSLRAEDTAVYYCAKGDTIMIISAWGQGTTVTVSS
VL: DIQLTQSPSTLSASVGDRVTITCRASQSISSWLAWHQQKPGKAPKLLIYAASSLQNGVPSRFSGSGFGTDFTLTISSLQPEDFATYYCQQASSFPLTFGGGTKVEIKR
notes: Fully human IgG1/kappa; also called lead antibody
As for B1, the EC50 is about 0.06 nM in test [1], under 1 nM in test [2], about 5 nM in test [3] and about 0.05 nM in test [4].

B2: Mirvetuximab (antibody, V domains shown)
VH: QVQLVQSGAEVVKPGASVKISCKASGYTFTGYFMNWVKQSPGQSLEWIGRIHPYDGDTFYNQKFQGKATLTVDKSSNTAHMELLSLTSEDFAVYYCTRYDGSRAMDYWGQGTTVTVSS
VL: DIVLTQSPLSLAVSLGQPAIISCKASQSVSFAGTSLMHWYHQKPGQQPRLLIYRASNLEAGVPDRFSGSGSKTDFTLTISPVEAEDAATYYCQQSREYPYTFGGGTKLEIK
Regarding B2, the values for the EC50 in test [1], in test [3] and in test [4] were about 0.16 nM, about 4 nM and about 0.12 nM, respectively.
